{"source": "patent US20210009673A1", "about": "“METHODS FOR REGULATING BREAST CANCERS” (priority 2018, published 2021)", "key": {"β-catenin": {"system": "β-catenin", "assay": "PTN-stimulated tyrosine phosphorylation of β-catenin in COS-7 cells (immunoprecipitation, Western blot)", "format": "cell-based", "description": "FIG. 1: FIG. 1 illustrates in (A) PTN stimulation of tyrosine phosphorylation of β-catenin in cells that express RPTPβ/ζ and ALK. COS7 cells transiently expressing ALK and RPTPβ/ζ were stimulated with 10 ng PTN/ml. Cell lysates were prepared and used to immunoprecipitate β-catenin. The immunoprecipitates were analyzed in Western blots probed with anti-phosphotyrosine antibodies. Lane 1, cells transfected with ALK that were not stimulated with PTN. Lane 2, cells transfected with ALK stimulated with PTN. Lane 3, cells transfected with empty vector not stimulated with PTN. Lane 4, cells transfected with empty vector stimulated with PTN. […] The immunoprecipitates were analyzed in Western blots probed with anti-phosphotyrosine antibodies. […] Cell lysates were used to immunoprecipitate β-catenin and the immunoprecipitates were analyzed in Western blots probed with anti-phospho-tyrosine antibodies and reprobed with anti-β-catenin antibodies. […] MCF-7 cells that stably express EGFR/RPTPβ/ζ not transfected with ALK were analyzed as above. […] Lysates of MCF-7 cells and lysates of MCF-7 cells stimulated with EGF were used to immunoprecipitate β-catenin and the immunoprecipitates were analyzed in Western blots probed with anti-phospho-tyrosine antibodies and separately with anti-β-catenin antibodies. […]"}, "MCF-7 cells": {"system": "MCF-7 cells", "assay": "homophilic cell-cell adhesion assay (ratio NTC/NTE)", "format": "cell-based", "description": "FIG. 4: FIG. 4 illustrates in: (A), β-catenin phosphorylated by ALK at tyrosine 333 decreases the association of β-catenin with cadherin. Recombinant E-cadherin serine 692 was phosphorylated with CK2 and GSK3β and incubated with recombinant GST-β-catenin, with GST-β-catenin phosphorylated in vitro by ALK, with GST-β-catenin Y333F, or with GST-β-catenin K292A, Y333F, K335A. The GST-conjugated proteins were captured with glutathione-conjugated beads and the phospho-Ser692-E-cadherin that associated with the GST-conjugated proteins was eluted and analyzed in Western blots probed with anti-β-catenin and anti-E-cadherin antibodies. […] After incubation for 20 minutes at 37° C., β-catenin was then captured with glutathione beads and, after extensive washing, eluted with SDS buffer and analyzed in Western blots with either anti-pan-cadherin antibodies, anti-phospho-tyrosine antibodies, or anti-β-catenin antibodies to determine if β-catenin phosphorylated by ALK at tyrosine 333 associates with cadherin. […] The ratio of cells dissociated in calcium-containing media (NTC) vs. the cells dissociated in calcium-free media (NTE) (a “dissociation index,” see Experimental Procedures) was measured. […] The morphological appearance was then analyzed 36 hours later and compared with cells transfected with an equal amount of control empty vector. […]"}}, "data": [{"molecule": "pleiotrophin (protein, UniProt P21246 33-168, looked up) Pleiotrophin: GKKEKPEKKVKKSDCGEWQWSVCVPTSGDCGLGTREGTRTGAECKQTMKTQRCKIPCNWKKQFGAECKYQFQAWGECDLNTALKTRTGSLKRALHNAECQKTVTISKPCGKLTKPKPQAESKKKKKEGKKQEKMLD", "values": [{"measurement": "tyrosine phosphorylation of β-catenin", "setting": "β-catenin; COS-7 cells expressing RPTPβ/ζ alone", "value": "failed to stimulate"}, {"measurement": "increased tyrosine phosphorylation of β-catenin", "setting": "β-catenin; COS-7 cells expressing both ALK and RPTPβ/ζ, 10 ng PTN/ml", "value": "about 3 fold"}, {"measurement": "ratio NTC/NTE", "setting": "MCF-7 cells; PTN-stimulated MCF7 cells expressing both RPTPβ/ζ and ALK", "value": "about 0.38"}, {"measurement": "ratio NTC/NTE", "setting": "MCF-7 cells; PTN-stimulated MCF-7 cells transfected with ALK alone", "value": "about 0.25"}]}]}
